# Measurements as given in US6683059B1, “Mini-E1A gene and gene products” (priority 1996, dated 2004).
# B1: mini-E1ACterm: mini-E1A construct in pcDNA1.1 encoding E1A 186-289; expected polypeptide about 80 amino acids, 209-289, SEQ ID NO:1 (nucleic acid)
# chain: CCTGTGTCTGAACCTGAGCCTGAGCCCGAGCCAGAACCGGAGCCTGCAAGACCTACCCGCCGTCCTAAAATGGCGCCTGCTATCCTGAGACGCCCGACATCACCTGTGTCTAGAGAATGCAATAGTAGTACGGATAGCGTGGACTCCGGTCCTTCTAACACACCTCCTGAGAGACACCCGGTGGTCCCGCTGTGCCCCATTAAACCAGTTGCCGTGAGAGTTGGTGGGCGTCGCCAGGCTGTGGAATGTATCGAGGACTTGCTTAACGAGCCTGGGCAACCTTTGGACTTGAGCTGTAAACGCCCCAGGCCATAA
# modifications: pcDNA1.1 vector
# Test system: subclone of SKOV-3.ip1
# Experiment: long-term survival study, E1A-Cterm lipid:DNA complex, aggressive SKOV-3.ip1 subclone in nude mice
# Format: in vivo, mouse
# Protocol: FIG. 9. Comparison of tumor suppressor activity of full-length E1A and mini-E1ACterm. Mice bearing tumors from an aggressive subclone of the SKOV-3.ip1 cell line were injected with the treatment compounds indicated. […] As also shown, while all nine control animals were dead by that time, none of the animals receiving full-length E1A or mini-E1ACterm had died. Mini-E1ACterm was equivalent to full-length E1A in tumor suppression.
# Long-term survival studies were performed using the E1A-Cterm mini-gene in a tumor engraftment model and DNA-lipid formulations as described above. In this study, it appears that the subclone of SKOV-3.ip1 used may have been even more aggressive in tumor formation than the SKOV-3.ip1 parent used to induce tumors in the nude mice since no control mice survived for more than about 35 days. The protocol was otherwise as in the long-term study above except that: (i) 10 mice were used in each group receiving E1A formulations and 9 mice were used in the control group; (ii) 5% dextrose was used for control injections; and (iii) a lipid:DNA ratio of 10:1 w as used for the treatment formulations however, as above, each injection contained 15 μg of DNA.
molecule,measurement,setting,value
B1,animals alive when the last dextrose control mouse died,"about day 35, lipid:DNA 10:1, 15 μg DNA per injection, 10 mice per group",100%
same,tumor masses in surviving mice after 21 weeks,"visual inspection, the 4 surviving mice",no signs of such tumor masses
